The MegaScale stability set (Tsuboyama et al. 2023)

B1: EHEE_rd4_0086 (parent)
chain: EIHIRTNGEEQARKVYKMLAKRNYDVKIEQHNGQWVVTAS
B2: HHH_rd1_0493 (parent)
chain: RDEDEKEKIKEALKRGNEDKAKEIAKRANVSPEEYERLRKEAE

Variants of: B1
Assay: folding stability dG (cDNA display proteolysis); higher = more stable
Settings: PBS, room temperature

Folding stability dG [kcal/mol] of substitutions, site by site:
E29: R 1.68 | S 1.99 | T 2.02 | V 1.98 | W 2.33 | Y 2.48
Q30: A 1.33 | C 2.32 | D 1.07 | E 1.85 | F 2.38 | G 0.999 | H 1.93 | I 2.1 | K 1.88 | L 1.93 | M 1.81 | N 2.01 | P 0.717 | R 1.81 | S 1.58 | T 1.49 | V 2.22 | W 1.8 | Y 2.3
H31: A 1.67 | C 2.09 | D 1.78 | E 1.85 | F 2.11 | G 0.849 | I 2.43 | K 2.04 | L 2.12 | M 2.03 | N 1.72 | P 0.168 | Q 1.95 | R 1.98 | S 1.78 | T 1.71 | V 2.24 | W 2.15 | Y 2.03
N32: A 1.7 | D 1.9 | E 1.76 | F 1.45 | G 1.86 | H 1.55 | I 0.67 | K 1.54 | L 1.51 | M 1.64 | P 0.291 | Q 1.65 | R 1.3 | S 1.38 | T 0.816 | V 0.762 | W 1.12 | Y 1.38
G33: A 0.852 | D 1.35 | E 1.21 | F 0.875 | H 1.49 | I 0.069 | K 0.996 | L 0.714 | M 0.969 | N 1.24 | Q 0.937 | R 0.801 | S 1.08 | T 0.841 | V 0.374 | W 0.42 | Y 0.642
Q34: A 1.77 | D 1.51 | E 1.87 | F 2.5 | G 1.58 | H 2.04 | I 2.27 | K 1.61 | L 1.86 | M 2.09 | N 1.52 | P -0.941 | R 1.59 | S 1.67 | T 1.95 | V 2.27 | W 2.31 | Y 2.55
W35: F 1.01 | I -0.153 | L -0.221 | M -0.847 | T -0.759 | V -0.525 | Y 0.915
V36: A 0.857 | D 0.384 | E 0.934 | F 2.06 | G 0.463 | H 1.56 | I 2.15 | K 0.658 | L 1.78 | M 1.58 | N 0.466 | Q 1.07 | R 1.07 | S 1.23 | T 1.39 | W 2.3 | Y 2.13
V37: F -0.019 | I 1.79 | L 0.844 | M 0.044 | W -0.025
T38: A 0.835 | D 0.023 | E 0.543 | F 1.72 | G 0.134 | H 1.64 | I 2.59 | K 1.71 | L 1.75 | M 1.67 | N 0.617 | Q 0.832 | R 1.78 | S 1.51 | V 2.25 | W 1.72 | Y 1.75
A39: D 0.179 | E 0.112 | F 2.32 | G 1.44 | H 1.11 | I 2.85 | K 0.724 | L 2.36 | M 1.98 | N 0.642 | P 0.297 | Q 0.463 | R 0.961 | S 1.21 | T 1.41 | V 2.51 | W 2.2 | Y 2.29
S40: A 1.54 | D 0.806 | E 1.02 | F 2.04 | G 1.33 | H 1.77 | I 2.05 | K 2.19 | L 1.78 | M 1.81 | N 1.65 | P 1.16 | Q 1.57 | R 2.25 | T 2.08 | V 1.98 | W 2.2 | Y 1.96

Variants of: B2
Assay: as above
Settings: PBS, room temperature

Folding stability dG [kcal/mol] of substitutions, site by site:
Y35: Q 0.44 | S 0.291 | R 0.281 | E 0.245 | G -0.05
D19: M 3.04 | L 2.98 | H 2.85 | N 2.86
N29: T 1.58 | C 1.83
K6: M 3.11 | W 3.32 | G 2.46 | E 2.27
K22: S 2.2 | D 1.73
D4: K 2.81 | N 2.89
E23: Q 2.73 | C 2.49 | A 2.87 | H 1.96 | L 2.16 | S 2.42
K8: Q 3.15 | R 3 | E 2.66
K26: P 0.553 | G 2.31 | W 2.01 | T 2.79
E43: Q 3.02 | A 2.94 | F 3.37
A25: I 0.742 | H 0.547 | Y 0.541
E5: A 3.7 | P 3.46 | H 3.3 | I 4.07 | N 2.71 | Q 2.87 | V 4.07 | F 4.03 | M 3.33
L13: R 0.401 | Y 0.88 | F 2.85 | V 1.58
I24: H 1.67 | R 1.04 | N 0.704 | C 1.77
E36: F 1.6 | H 1.75 | V 1.5 | Y 1.52
P32: A 3.03 | H 2.7 | Y 2.7 | Q 2.8 | K 2.65 | G 2.37
N17: F 2.98 | M 2.94 | Q 3.2 | D 3.78 | P 1.03 | G 1.46
R15: P 0.627 | V 2.83 | C 2.31
I9: E 0.589 | S 0.587 | A 0.796 | H 0.471 | L 2.28 | M 1.48
A28: S 2.51 | P 0.576 | F 2.91
A42: L 2.54 | S 2.37 | D 0.965
E11: R 2.54 | N 2.88 | D 2.96
E33: M 2.33 | G 2.25 | S 2.43
E41: P 0.8 | R 2.07
E7: V 2.97 | M 3.12 | H 2.94 | L 3.09 | I 3.06 | R 3.15 | K 3.1
R37: I 2.44 | T 2.22
A12: S 2.15 | V 1.06
V30: G 0.389 | I 3.41 | D 0.32 | P 0.301
E18: L 2.86 | N 2.29 | D 2.47
R39: M 2.1 | N 1.18 | I 2.09 | D 0.392
R1: P 3.19 | E 3.02 | V 3.22
K14: S 2.36 | R 3.32 | P 0.417 | Q 2.3 | C 2.24 | L 2.67 | I 2.67
A21: N 0.483
E3: R 2.93 | A 2.88 | D 3.11 | L 2.89 | Q 3.06 | K 2.93 | H 3
L38: G 0.162 | I 2.76
K10: T 1.7 | D 0.644
S31: P 2.65 | E 2.17
E34: A 1.69 | S 1.14
D2: A 2.87 | V 3.17
K40: R 3.33 | Y 2.89
K20: P 0.93
R27: F 2.01 | G 2.36 | D 2.26 | Q 2.83
G16: S 1.29 | H 2.04 | K 1.73 | N 1.91
